Data on two molecules can be found in patent US20120230981A1 (RESEARCH CORPORATION TECHNOLOGIES, published 2012).

Test [1] concerns the target T1, soluble, recombinant hFcRn (human, UniProt P55899 24-297; P61769 21-119, limits assumed, biotinylated in the yeast flow cytometry assays (biotin-soluble FcRn); site not stated).
T1 construct: also called rFcRn; soluble FcRn
In words: competition, flow cytometry: IgG1 inhibits binding of soluble FcRn to yeast-displayed m01s at pH 6.0.

For test [2], the target named is T1, soluble, recombinant hFcRn. In words: Biacore (SPR), HiswtCH2 at 75-1200 nM. The procedure:
For reference, the WT CH2 sequence (without the HIS tag) is shown in SEQ ID NO: 1. “HiswtCH2” of FIG. 1 is the WT CH2 sequence with a His tag, e.g., a group of histidine residues in a row, e.g., 6 histidine residues. […] HiswtCH2 was tested at 75, 150, 300, 600, 1200 nM. The A curves (1A, 2A, 3A, 4A, 5A, and 6A) are binding curves; the B curves (1B, 2B, 3B, 4B, 5B, and 6B) are fitted curves.

T1 sequence (P55899 24-297 limits assumed, chain 1 of 2): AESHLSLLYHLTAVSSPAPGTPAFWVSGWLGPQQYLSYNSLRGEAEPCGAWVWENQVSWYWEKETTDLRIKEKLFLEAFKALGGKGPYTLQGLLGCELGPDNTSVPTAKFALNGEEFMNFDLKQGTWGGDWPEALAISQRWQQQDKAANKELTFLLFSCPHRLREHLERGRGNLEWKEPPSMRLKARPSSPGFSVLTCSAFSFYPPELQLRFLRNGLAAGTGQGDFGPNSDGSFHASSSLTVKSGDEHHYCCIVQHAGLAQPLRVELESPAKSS
T1 sequence (P61769 21-119 limits assumed, chain 2 of 2): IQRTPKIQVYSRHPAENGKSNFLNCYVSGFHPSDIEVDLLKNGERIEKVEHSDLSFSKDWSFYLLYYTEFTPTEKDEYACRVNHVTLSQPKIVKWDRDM

Regarding IgG1 (antibody), the IC50 in test [1] came out at 629 nM.

B1: HiswtCH2 (wild type CH2 domain of human IgG1 with a His tag) (other)
chain: APELLGGPSVFLFPPKPKDTLMISRTPEVTCVVVDVSHEDPEVKFNWYVDGVEVHNAKTKPREEQYNSTYRVVSVLTVLHQDWLNGKEYKCKVSNKALPAPIEKTISKAKGQ
notes: also called wild type (WT) CH2; not shown: His tag, 'e.g., 6 histidine residues'
B1: in test [2], the Kd was found to be 90.8 nM, the koff was determined as 0.00184 s⁻¹ and the kon was determined as 20300 M⁻¹ s⁻¹.
